According to the DeepSol protein solubility set:

Experiment: soluble on expression in E. coli; label from the status in PepcDB or PDB records

Q: Which “soluble on expression in E. coli” value does the source give for “MSLEQLNERTVLEYVEKTDLRKSILGDGKLSAQIISEGNVNLIFRICNIENGNSVILKQALPYAWRYPDFKMPVDRQRIEYETLSIESQYAPDYVPKIYFYDNKSHVLVIEDLKELKVMREALIDGEIFPKVAEHIGIFMAKTLFYTSDLYLSSGKKKEMVINFSNPVLCKVQEDLVFTQPYIDHPNNKWSKPLDEIVKKIHQDDKIRGEIFYFKELYMTKSQALIHNDLHTGSIMLNEKTTKVIDPEFAFYGPMAHDIGTYFANLAIAYAAQEAHRVEPGTRNVYREWIAESFEETWNVFQQRFLNAWEKDSNGEWPSESYRENYMLRLLKESAGFGAAEIFRRTIGMAHVHDFWTIKDENIRAKSESIALYIAINWINMWKDVEKIQDLSQVMKNSKPLEGHHHHHH” here?
A: Its value is “soluble”.

Q: With “MSLEREKVELFKEVLKKLHKGEDVESLKKQFGELLSQIPPFEIPVIEQELLKSGEIDVRDIIKMCDLHVEFFRGAVSEAGREIEKLPNGHPLRTLYEENKQILKDAEALSLLASSMFSLPKDDPRRKQFYEKLVQHVSELHRIGLTHYTREEMLIFPYIERRGITAVPTVLWSKHDETRLKIRLLLNLLKKEESDERLKEEALELSRMLSDMVFRENNILYPTLKVLLTEGEWKAIKMLEKDIGYYKIEVTEEWETPEKPLLPHRNCLRRPIPFRGLGGSRHVYHLQIQEGHHHHHH” as the sequence, how does the “soluble on expression in E. coli” value read?
A: Its value is “soluble”.

Q: With “MSLERLRVAAYCRVSTDSEDQLNSYKSQVQYYTDMIKKNKEWVLADIYADEAITGTQVTKREDFQRMINDCMNGEIDMVITKSISRFARNTLDTLKYVRMLKERNIAVYFEDEKINTLTMDGELLLVVLSSVAQQEVENISANVKKGLKMKMKRGELVGFQGCLGYDYHPEDKTITVNQEEAEIVRYIFNRYVDGAGGSVIGQELENLGYKTKYGSSTWAPSTVIGIIKNEKYKGDILLGKTFTVDPISKRRLENMGEEDKFYMKDHHEPIISEEVFEKAQEILNRRNKNREGHHHHHH” as the sequence, how does the “soluble on expression in E. coli” value read?
A: Its value is “soluble”.

Q: Which “soluble on expression in E. coli” value does the source give for “MSLESKYTVLDMFSGAGGLTEGFFQQGFKFVSHIEKNCHARNSLETRAIYHSLKDSSNERIYRDYISGNLNRDEFIHKFKELELTPAGLLQGEVTESNETTMIKEIKEHLKVIDSDSVDVVIGGPPCQAYSVAGRGRKPKEMKDDPRNYLYRHYISFLKSFEPKIFVFENVPGIKSAINGIIFSNLHEELEKLGYKTEAHMLNAKDFSVLQERNRIIFIGWKNEHDLSYPDFLKTPLGRFHVSSLLNDLPPLQAGEGTEGPAKYTKPFSWSSEYLQRFKIREKKDILIQHNARIHNPRDRTIYRLAIEKWDKERKRLKYNELSPELQTHKNKTSFLDRFKVVNQYGYSHAILAHISKDGHYFIHPDIHQARSLTVREVARIQSFPDNYKFEGPRIAQYAQIGNAVPPLMAKGIAVEIEKMLEEISEGHHHHHH” here?
A: The value was “not soluble”.

Q: For “MSLESLVPYNETVSTEVQFAKALEKYKFDLLHAKSNFHDQDQEQNTADVNNQHLQTQAQSSSPFDIVQKFADIAAANAYSVLPDQLSSNIDDDVYDQDFTNWDLEMKFWRLVENLNYYRVFCYENEVFGKEKEIGELYAILDWLQYHSAGEREHDQILKDQLGNEDENGNGDEEEKLLGTRSKWINTRLSIENGVYDALSGKNSNDQLIQEMDVDAPLRSGMHVDAKDAELDSKNFQAIYKLVVLGEYTDAIEFANETGNHALAVILAGAISFVEDDDQVMELANEVEGEGNIKLSASTRDKTIWVRLVYKLSKNTNLDPNERLIYSYLSGGDISENLKRASDSYEESINILVRQLLTYSELQKMHLNSFVEFTPPAPQANSMKDILNIVSNSLGSRAAEESRHPVRILMAAIMLDDLDPIISDLNDSTNDNILRILVHASLFLALLRSPQNPEQLNALITLYISKLTENNQTELVPLYLSFIPDERDARETYSLILASITDKEQRRKQLEIAKGISQSHQQSPLPLLQSQPSSHSNEDTEMVPIDDVEQDKLVNVLRRTVERVMDETEEYYNPGNEPFAIVDSGSEGHHHHHH”, which “soluble on expression in E. coli” value is on record?
A: Its value is “soluble”.

Q: For “MSLESPISEKKPPVIVQEVEQKPEVVEKENILIEQEKEVIKPLDVPLILQKPELMRGCEVTSLAMVLQFSGVKVDKMELASKIHYVPFQSNGLKGNMHKGFIGDMATFDKPGLGVFVEPILELAKLYVPDEKVMNLSYKEPEHIYEAIDRGLPVWVLTNARFKRLPDNQFYTWRTDTGEMKVTYHQHSVVVTDYDDQYVYINDPLKTDKHRAINRNNFEQSWIQMGRQAMTISIEGHHHHHH”, which “soluble on expression in E. coli” value is on record?
A: Its value is “not soluble”.

Q: Which “soluble on expression in E. coli” value does the source give for “MSLEVKLNENERIDDLQCKGLKIIQKKAGFCFGLDAVLLANFADIKKGDTVIDLGTGTGIIAILIAGKTEAKSIIGLEIQEEMAEMAQRSVKLNNLEDRVKIVCGDIKNSVEMFGASKFDVVVTNPPYMNQGGGLLNISDTKAISRHEIKCTLEDVIKASSKLLVPGGQFAMVHRPDRLVDIIWLMRKYSIEPKYLQFVHPYPRKKANLILIKGARQGRVQLKMLEPLYVYDENGNYSKEIDNIYGREVRNEGHHHHHH” here?
A: The value was “soluble”.

Q: With “MSLEVRWNEYLSRNGSLFSSDELSGASPPSVFVGSYGYPRVGVGPMVPPVHGDTSLMDAPERWAGRPLDEIVNYRLSLVRGIRKTRVTGTSGRYIEGLQEAAMSRRPVDSDIRFEKPVSPAALADGCCAPFGPVGEIRRASFGGSSADGAIERAYYDRDLGAADAAVALYDGGTEISRIQGCLSVGMLGRRRKLVPTRWSITAVDDMVSKRLVGRIKDAPVSDAHQVFHYVHMGNLFSVVLFPHRWLFEMMEAYYSGGVLGFGADHEDARGLDHAPATAGAHFASRLAVAEHLCGRGVQAGALVLREIRAEYSVPVGVWQVREGLRAAMAQKPFVAGSLDEAIDEACRPMSISRNEWLSHGSIMRLVRQRTLSEFFEGHHHHHH” as the sequence, how does the “soluble on expression in E. coli” value read?
A: Its value is “not soluble”.

Q: For “MSLFLKDDSIQIREVWNDNLQEEMDLIRDVVDDFPYVAMDTEFPGIVVRPVGTFKSNADYHYETLKTNVNILKMIQLGLTFSNEQGNLPTCGTDKYCIWQFNFREFDLDSDIFALDSIELLKQSGIDLAKNTLDGIDSKRFAELLMSSGIVLNENVHWVTFHSGYDFGYLLKLLTCQNLPDSQTDFFKLINVYFPTVYDIKHLMKFCNSLHGGLNKLAELLEVERVGICHQAGSDSLLTSCTFRKLKENFFVGPLHKYSGVLYGLGVENGQVAI”, which “soluble on expression in E. coli” value is on record?
A: The value was “soluble”.

Q: For “MSLFVSLSEKKKFLTWLVNTAPFGRREVLWILNYLLTHDAILNNVHFVENVEKTDRGIRVVADGLGKEPLLLFIQAQEFTDPEQIFHEIRMNWRKALYLECVFPEAWQTSQYLSVLEDNPFAPWNEQVDQEVARAIDQYFKQEEQTQRMALLKAQIDDALETGNKEAFLELSDELNRLKQQEGHHHHHH”, which “soluble on expression in E. coli” value is on record?
A: Its value is “soluble”.

Q: Which “soluble on expression in E. coli” value does the source give for “MSLFYEEVFSDLKEEEKALLEFISSGNLEIDRKLEGGVPVGSLCLLEGGNDSGKSIFLQQIMWGALNQDKRVLALATEKTSKELLNQMESLKHGISDYFIIGRAKIFEINAGYVEENPQLSESLLQVLLECIKRCKEELILIDSLTIFAVNASENAVLNFFTECVKLCDNGKTILISVHGYAFSQSVLYRLRSVCSVCLELRIEQVGDQWIKTMEIQKLRGARKTRGNLLSFDVDSKFGLKIIPVSKVKAEGHHHHHH” here?
A: Its value is “soluble”.

Q: With “MSLGAYLSEPLTTKDSSDESNEFLASGSSSMQGWRISQEDAHNCILNFDDQCSFFAVYDGHGGAEVAQYCSLHLPTFLKTVEAYGRKEFEKALKEAFLGFDATLLQEKVIEELKVLSGDSAGSDAEPGKDSGCTAVVALLHGKDLYVANAGDSRCVVCRNGKALEMSFDHKPEDTVEYQRIEKAGGRVTLDGRVNGGLNLSRAIGDHGYKMNKSLPAEEQMISALPDIEKITVGPEDEFMVLACDGIWNFMTSEQVVQFVQERINKPGMKLSKICEELFDHCLAPHTRGDGTGCDNMTAIIVQFKEGHHHHHH” as the sequence, how does the “soluble on expression in E. coli” value read?
A: The value was “soluble”.

Q: Which “soluble on expression in E. coli” value does the source give for “MSLGDSRGRVFSWSVSDQPGRSAADHWVKDEGGDSCSGCSVRFSLTERRHHCRNCGQLFCQKCSRFQSEIKRLKISSPVRVCQNCYYSLQHERGAEDGPRNCEGHHHHHH” here?
A: The value was “soluble”.
